Data from the nanobody polyreactivity screen of Harvey et al. (2022).

Experiment: yeast display, Sf9 membrane polyspecificity reagent, FACS + sequencing; frameworks hold sequencing errors
Method in brief: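 Synthetic nanobody libraries on Saccharomyces cerevisiae BJ5465 were galactose-induced for 36–48 hours, stained 1 hour at 4 °C with 10% biotinylated, detergent-solubilized Sf9 membrane reagent and enriched on streptavidin microbeads. FACS then separated cells into low and high (top ~1%) gates by anti-HA (expression) and streptavidin (reagent binding) fluorescence. Genes were colony-PCR amplified, MiSeq 2 × 250 sequenced and CDR-length filtered. A clone's polyreactivity label is that of its gate of origin.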

Sequence | polyreactivity (PSR sort gate)
QVQLVESGGGLVQAGGSLRLSCAASGSTFDYNAMGCYRQAPRKERELDAVIRSGGTTYYADSVKGRFTISRVNAKNTVYLQMNSLKPEDTAVYYCAASFQRRAGSYGGSRRYGYLGQGTQVTVSS | high polyreactivity
QVQLVESGGGLVQAGGSLRLSCAASGSTFDYNAMGWYRQAPGKERELVAAISRGGNTDYADSVKGRFTISRDNAKNSVYLQMNSLKPEDTAVYYCAADALLEWFDVAYFAYEYWGQGTQVTVSS | low polyreactivity
QVQLVESGGGLVQAGGSLRLSCAASGSTFDYNTMGWYRQAPGKERELVAAISWRGVSTYYADSVKGRFTISRDNAKNTVYLQMNSLKTEDTAVYYCNAVHHYPEHIGGGYWGQGTQVTVSS | low polyreactivity
QVQLVESGGGLVQAGGSLRLSCAASGSTFDYNTMGWYRQAPGKERELVAGIRSSGARTYYADSVKGRFTISRDNAKNTVYLQMNSLKPEDTAVYYCAKTDGFYRGYGYWGQGTQVTVSS | low polyreactivity
QVQLVESGGGLVQAGGSLRLSCAASGSTFDYYAMGWYREAPGKERELVAGITSDGSTYYADSVKGRFTISRDNAKNTVYLQMNSLKPEDTAVYYCNKAPYHWPYEYWGQGTQVTVSS | low polyreactivity
QVQLVESGGGLVQAGGSLRLSCAASGSTFDYYAMGWYRQAPGKERELVAAISSGGSTNYADSVKGRFTISRDNAKNTVYLQMNSLKPEDTAVYYCAAVALWDYKFFYYLLYDYWGQGTQVTVSS | low polyreactivity
QVQLVESGGGLVQAGGSLRLSCAASGSTFDYYAMGWYRQAPGKERELVAAISSSGSSTYYADSVKGRFTISRDNAKNTVYLQMNSLKPEDTAVYYCNALSNVPYDYWGQGTQVTVSS | low polyreactivity
QVQLVESGGGLVQAGGSLRLSCAASGSTFDYYAMGWYRQAPVKERELVAAITGTGGSTYYADSVKGRFTISRDNAKNTVYLQINRLKPEDTAVYYCAADTYLGWSYYWGQGTQVTVSS | high polyreactivity
QVQLVESGGGLVQAGGSLRLSCAASGSTFDYYTMGWYRQAPGKERELVAAISRSGGSTRYADSVKGRFTISRDNAKNTVYLQMNSLKPEYTAVYYCAAKLWRYYHYDYWGQGTQVTVSS | low polyreactivity
QVQLVESGGGLVQAGGSLRLSCAASGSTFDYYVMGWYRQAPGKERELVAAISLSGGSTYYADSVKGRFTISRDNAKNTVYLQMNSLKPEHTAVYYCAAQTKPASRVTYYWYYYWGQGTQVTVSS | high polyreactivity
QVQLVESGGGLVQAGGSLRLSCAASGSTFEAYAMGWYRQAPGKERELVAAITRGSTYYADSVKGRFTISRDNAKNTVYLQMNSLKPEDTAVYYCNVDYSYNSGYDYWGQGTQVTVSS | high polyreactivity
QVQLVESGGGLVQAGGSLRLSCAASGSTFEAYAMGWYRQGPGKERELVAAINFTGGRTYYADSVKGRFTISRDNAKNTVYLQMNSLKPEDTAVYYCAARKWGVPYIDNDYWGQGTQVTVSS | low polyreactivity
QVQLVESGGGLVQAGGSLRLSCAASGSTFEDYPLGWYRQAPGKERELVAAISHIGGSTYYADSVKGRFTISRDNAKNTVYLQMNSLKPEDTAVYYCAKGGFSSKFDYWGQGTQVTVSS | low polyreactivity
QVQLVESGGGLVQAGGSLRLSCAASGSTFEIYAMGWYRQAPGKERELVAAISSGGSTNYADSVKGRFTISRDNAKNTVYLQMNSLKPEDTAVYYCVYAIQFDYWGQGTQVTVSS | low polyreactivity
QVQLVESGGGLVQAGGSLRLSCAASGSTFEQYAMGWYRQAPGTERELVASISTGGGRTYYADSVKGRFTISRDNAKYTVYLQMNSLKPEETAVFYCNKRYRGYKTGYSRFDYWVQGTQVTVSS | low polyreactivity
QVQLVESGGGLVQAGGSLRLSCAASGSTFERYVMGWYRQAPGTERELVAAISRSGGTTYYADSVKGRFTISRDNAKNTVYLHMNSLKPEDTAVYYCAARYSVRGSQRPIYYYWGQGTQVTVSS | high polyreactivity
QVQLVESGGGLVQAGGSLRLSCAASGSTFESNAMGWSRPAPGKEREFVAAITSGGSTDYADSVKGRFKISRDNAKNTVYLQMNSLKPEDTAVYYCAKGTFDLHYRKRYNYWGQGTQVTVSS | low polyreactivity
